Target: T1, human recombinant Flag-DAXX protein (human, UniProt Q9UER7 1-740)
T1 construct: DAXX (death-domain associated protein), human, recombinant; Commercial protein; no catalogue number is printed in the main text; source: bought: OriGene Technologies (recombinant protein)
Experiment: pull-down; 50 ng His-PTEN immobilised on 30 ul nickel beads, incubated with 200 ng Flag-DAXX for 2 h at 4 °C; bound proteins eluted and immunoblotted (the legend says IP anti-PTEN, IB anti-Flag)
Details: both partners purified

T1 sequence (Q9UER7 whole entry): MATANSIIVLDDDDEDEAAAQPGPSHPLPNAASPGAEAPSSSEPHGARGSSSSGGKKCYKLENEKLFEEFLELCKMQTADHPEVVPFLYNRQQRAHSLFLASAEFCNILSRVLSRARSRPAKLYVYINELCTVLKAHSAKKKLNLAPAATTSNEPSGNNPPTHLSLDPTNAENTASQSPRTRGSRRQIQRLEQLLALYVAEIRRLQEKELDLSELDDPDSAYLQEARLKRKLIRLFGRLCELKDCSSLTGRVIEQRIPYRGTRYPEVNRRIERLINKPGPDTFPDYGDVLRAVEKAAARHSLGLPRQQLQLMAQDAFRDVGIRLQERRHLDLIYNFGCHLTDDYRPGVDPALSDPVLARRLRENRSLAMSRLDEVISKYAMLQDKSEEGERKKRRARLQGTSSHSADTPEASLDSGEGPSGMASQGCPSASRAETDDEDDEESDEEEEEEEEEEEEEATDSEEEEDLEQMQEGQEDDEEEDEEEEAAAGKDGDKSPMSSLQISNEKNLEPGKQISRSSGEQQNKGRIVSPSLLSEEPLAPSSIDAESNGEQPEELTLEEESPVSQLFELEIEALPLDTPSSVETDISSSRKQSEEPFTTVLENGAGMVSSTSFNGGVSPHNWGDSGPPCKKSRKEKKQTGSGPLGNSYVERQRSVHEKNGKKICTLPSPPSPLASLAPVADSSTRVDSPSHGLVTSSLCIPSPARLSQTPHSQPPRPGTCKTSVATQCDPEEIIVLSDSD

binding result: binds
B1: human recombinant His-PTEN (natural protein)
chain: not shown
notes: PTEN (phosphatase and tensin homolog), human, recombinant; Commercial protein; no catalogue number is printed in the main text (reagents are in the Supplementary Methods); source: bought: ENZO Life Science (recombinant protein)
